Target: T1, human TNF (human, UniProt P01375 77-233)
T1 construct: Passed over captured antibody in solution; also called human TNFα
Experiment: SPR (BIAcore); antibody captured by immobilized anti-Fab′ antibody, human TNF passed over

T1 sequence (P01375 77-233 limits assumed): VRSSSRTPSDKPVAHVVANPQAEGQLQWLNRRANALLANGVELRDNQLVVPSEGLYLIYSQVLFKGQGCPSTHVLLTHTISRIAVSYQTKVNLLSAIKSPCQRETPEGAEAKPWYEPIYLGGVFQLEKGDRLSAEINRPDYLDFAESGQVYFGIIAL

- Kd: 179 pM
B1: hTNF40 IgG (antibody, V domains shown)
VH: QIQLVQSGPELKKPGETVKISCKASGYVFTDYGMNWVKQAPGKAFKWMGWINTYIGEPIYVDDFKGRFAFSLETSASTAFLQINNLKNEDTATYFCARGYRSYAMDYWGQGTSVTVSS
VL: DIVMTQSQKFMSTSVGDRVSVTCKATQNVGTNVAWYQQKPGQSPKALIYSASFLYSGVPYRFTGSGSGTDFTLTISTVQSEDLAEYFCQQYNIYPLTFGAGTKLELKR
